In the nanobody polyreactivity screen of Harvey et al. (2022):

Experiment: yeast display, Sf9 membrane polyspecificity reagent, FACS + sequencing; frameworks hold sequencing errors
Summary of the method: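 Polyreactivity labels are assigned by the sorting gate from which each nanobody was recovered. The gates were low and high (top ~1%), set on anti-HA fluorescence for expression and streptavidin fluorescence for reagent binding. Before sorting, galactose-induced (36–48 hours) yeast display cells were stained for 1 hour at 4 °C with 10% biotinylated, detergent-solubilized Sf9 membrane reagent.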

Row | Sequence | polyreactivity (PSR sort gate)
1 | QGQLVESGGGLVQAGVTLRLSCAASGITFPWYAMGWYRQAPGKERELVASITSGGSTNYADSVKGRFTISRDNSKNTVYLQMNSLKPEDTAVSYCARDWYSPVYWAAGYDAWGSGYDYWGQGTQVTVSS | high polyreactivity
2 | QVQLVESGGGLVQAGGSLRLSCAASGSIFGRNAMGWYRQAPGKERELVADIWNGGSTYYADSVKGRFTISRDNAKNTVYLQMNCLKPEDTAVYYCNADANDDGRFGGYIKYDYWGQGTQVTVSS | low polyreactivity
3 | QVQLVESGGGLVQAGGSLRLSCAASGFTFYTNTMGWYRQAPGKERELVAVISRTGGSTYYADSVKGRFTISRDNANNTVYLQMKSLKPEDTAVYYCAKRGQWPYDYFIGNYWGQGSQVTVSS | high polyreactivity
4 | QVQLVESGGGLVQAGGSLRLSCAASGIIFGHYAMGWYRQAPGKERELVAAIRSSGGTTYYADSVKGRFTISRDNAKNTVYLQMNRLKPEDTAVYYCAKRGVHLYHDYYWGQGTQVTVSS | low polyreactivity
5 | QVQLVESVGGLVQAGGSLRLSCAASGSTFAGYAMGWYRQAPGKERELVATITYSGGSTYYADSVKGRFTISRDNAKNTVYLQMNSLKPEDTEVYYCAKKASYWWGYEYWGQGTQVTVSS | low polyreactivity
6 | QVQLVESGGGLVQAGGSLRLSCAASGITFGANAMGWYRQAPGKERELVAHITWSGGDTYYADSVKGRFTISRDNAKNTVYLQMNSLKPEDTAVYYCNALQPGLGSPLGEYDYWGQGTQVTVSS | low polyreactivity
7 | QVQLVESGGGLVHAGGPLRLSCAPSGFIFRGYAMGWYRQAPGKEREFVAAISGSGGSTYYADSVKGRFTISRDNAKNTVFLQMNSLKTDDTAVYYCNARFWGVWGGYDYWGQGTQVTVSS | high polyreactivity
8 | QVQLVESGGGLVQAGGSLRLSCSASGSNFGYYAMGWYRQAPGKERELVASITWTGGSTYYADSVKGRFTISRDNAKNTVYLQMNSLKPEDTAVYYCAAQLEPSYWFWTGYGYWGQGTQVTVSS | high polyreactivity
9 | QGQLVESGGGLVQAGGSLRLSCAASGRIFYGNVMGWYRQAPGKERELVADISYDGGSTYYADSVKGRFTISRDNAKNTVYLQMNSLKPEDTAVYYCNKREVFIYGTTYDYWGQGTQVTVSS | low polyreactivity
10 | QVQLVESGGGLVQAGGSLRLSCAASGRIFYANAMGWYRQAPGKERELVASISARGGSTYYADSVKGRFTISRDNAKNTVYLQMNSLKPEDTAVYYCAKRDTFKPYASLYDYWGQGTQVTVSS | high polyreactivity
11 | QVQLVESGGGLVQAGGSLRLSCAASGSILGLYAMGWYRQAPGKERELVAAISSGGSTYYADSVKGRFTISRDNAKNTVYLQMNSLKPEDSAVYYCAADLSWSRVVFGDYDYWGQGTQVTVSS | low polyreactivity
12 | QVQLVESGGGLVQAGGSLRLSCAASGIIFIPYAMGWYRQAPGKEREFVAAISSSGGSTYYADSVKGRFTISRDNAKNTVYLQMNSLKPEDTSVYYCAAQYVSRRYSRYNYWGQGTQVTVSS | high polyreactivity
13 | QVQLVESGGGLVQAGGSLRLSCAASGRIFRGYVMGWYIQAPGKERELVAAISINGGRTYYADSVKGRFTISRDNAKNTVYLQMNSLKPEDTAVYYCAAEPIYFRGLYYYWGLGTQVTVSS | high polyreactivity
14 | QVQLVESGGGLVQAGGSLRLSCAASGLTFYYYAMGWYRQAPGKERELVASITKRGGSTYYADSVKGRFTISRDNAKNTVYLQMNSLKPEDTAVYYCAAQYRSQGQPKGGVLYYYWGQGTQVTVSS | high polyreactivity
15 | QVQLVESGGGLVQAGGSLRLSCAASGSIYSHYAMGWYRQAPGKERELVAAITKSGSTTYYADSVKGRFTSSRDNAKNTVYLQMNSLKPEDTAVYDCWGQGTQVTVSS | low polyreactivity
16 | QVQRVESGGGLVQAGVSLRLSCAASGITFVPYAMGWYRQAPGKERELVAAISSSGGSTYYADSVKGRFTISRDNAKNTVYLQMNSLKPEDTAVYFCNVPTHSYIGMDYWGQGTQVTVSS | low polyreactivity
17 | QVQLVESGGGLVQAGGSLRLSCAASGFTFQAYAMGWYRQAPGKVRELVAAINFSTGRTYYADSVKGRFTISRDNAKNTVYLQMNSLKPEDTAVYYCAADGSWTRSYDFDYWGQGTQVTVSS | high polyreactivity
18 | QVQLVDSGGGIVQAGGSLRLSCAASGTFDAYAMGWYRQEPGKERELVASISSSGGSTYYADSVKGRFTITRDNAKNTVYLQMYSLNPEDRAVYYCAATDFWYSGYYWGKGTQVTVSS | low polyreactivity
19 | QVQLVESGGGLVQAGGSLRLSCAASGSIFYGNAMGWYRPAPGKERELVAGITSGVGTNYADSVKGRFTISRDNAKNTVYLQMNSLKPEDTAVYYCAARVYRYRHYDYWGQGTQVTVSS | high polyreactivity
20 | QVQLVESGGGLVQAGGSLRLSCAASGSIFTGYAMGWYRQAPGKERELVARITKRGGSTYYADSVKGRFTISRDNAKNTVYLQMNSLKPEDTAVYYCNADRKFPYGSYETHDYWGQGTQVTVSS | high polyreactivity
21 | QVQLVESGGGLVQAGGSLRLSCAASGSTFSFYAMGVYRQAPGKERELVAAISKSGGRTYYADSVKGRFTISRDNAKYTVYLQMNSLKPEDTAVYYCAARGNGQYVGKYYYWGQGTQVTVSS | high polyreactivity
22 | QVQLVESGGGLVQAGGSLRLSCAASGSIFVRYAKGWYRQAPGKERELVAAIDIGGGTYYADSVKGRFTISRDNAKNTVYLQMNSLKPEDTAVYYCAADGFTEYIYLPYDYWGQGTQVTVSS | high polyreactivity

Row | Sequence | polyreactivity (PSR sort gate)
23 | QVQLVESGGGLVQAGGSLRLSCAASGNIFQAYAMGWSRQAPGKERELVATIRTYADYVKGRFTISRDNAKNTVYLQMNSLKPEDTAVYYCAAQNAMYYDSYSGYDSWGQGTQVTVSS | low polyreactivity
24 | QVQLVESGGGLVQAGGSLRLSCAASGRTFKYNAMGWYRQAPGKERELVAVIRYSGGTTYYADSVKGRVTISRDNAKNTVYLQMNSLKPEDTAVYYCAADSWSRSVNYYYWGQGTQVTVSS | low polyreactivity
25 | QVQLVESGGGLVQAGGSLRLSYAASGRTFYRYAMGWYRQAPGKERELVAVITSGSRTKYADSVKGRFTISRDNAKNTVYLQMNSLKPEDTAFYYCAARGLALEGKSSGEYWGQGTQVTVSS | high polyreactivity
26 | QVQLQESGGGMEQAGGSLRLSCAASGYISWADYMVWYRQAPGKERELVAGIGYGSTTYYADSVKGRFTISRANAKNTAYLQMNSLKPEDTAVYYCAVGWYRDTAYKYWGQGTQVTVSS | low polyreactivity
27 | QVQLVESGGRLVQAGGSLRLSCAPSGSIFWGYAMGWYRQAPGKERELVAVISRGGSTYYADSVKGRFTISRDNAKNTVYLKMNSLKPEDTAVYYCAASSSWFYSPEYDYWGQGTQVTVSS | low polyreactivity
28 | QVQLVESGGGLVQAGGSLRLSCAASGRTFDRYAMGWYRQAPGKERELVAAITWSGGRTYYADSVKGRFTISRDNAKNTVYLQINSLKPEDTAVYYCAAAPRSYFTSEYWGQGTQVTVSS | low polyreactivity
29 | QVQLVESGGGLDQAGGSLRLSCAASGLTFATYAMGWYRQAPGKERELVAAINGRGASTNYADSVKGRFTISRDNAKNTVYLKMNSLKPEDTAVYYCASRLYRRNKYVLFDYWGQGTQVTVSS | high polyreactivity
30 | QVQLVESGGGLVQAGGSLRLSCAASGSIFTAYTMGWYRQAPGKERELVAAITERGGSTYYADSVKGRFTISRDNAKNTVYLQMNSLKPEDTAVYYCNAVWYFKPPPLYYIPYRQYDYWGQGTQVTVSS | low polyreactivity
31 | QVQLVESGGGLVQARGSLRLSCAASGYIINQYTKGWYRQAPGKERELVADISSGGSTKYADSVKGRFTISRDNGKNTVSLQMNSLKPEDTAVYYCNGEYDSGSPTAYDWEYDYWVQGTQVTVSS | high polyreactivity
32 | QVQLVESGGGLDQAGGSLRLTCAASGRTIGSYAMGWYRQAPGKERELVAAISYSGGSTYYADSVKGRFTISRDNAKNTVYLQMNSLKPEDTAVYYCAKSWRYSIIQSYRAGYNYWGQGTQVTVSS | high polyreactivity
33 | QVQLVESGGGLVQAGGSLRLSCAASGSIFAHNAMGWSRQAPGKESEMVAAISSGGSTNYADSVKGRFTISRDNAKNTVYLQMNSLKPEDTAVDYCAKSIDGWYWRRRRYDYWGQGTQVTVSS | low polyreactivity
34 | QVQLVESGGGLVQAGGSLRISCAASGRIFSYNAMGWYRQAPGKERELVASISRGGSTYADSVKGRFTISRDNAKNTVYLQMNRLQPADTAVYYCNAVHFSYEYDYWGQGTQVTVSS | high polyreactivity
35 | QVQLVESGGGLVQAGGSLRLSCAASGRTFAWYAMGWYRQAPGKERELVAVIRRGSGDTYYADSVKGRFTISRDNAKNTVYLQMNSLKPEDTAVYYCAAEGRFSFYGGGRPKYSRYDYWGQGTQVTVSS | high polyreactivity
36 | QVQLVESGGGLVQAGGSLRLSCAASGSTFPSYAMGWYRQAHGKERELVAAINSGGGTNYADSVKGRFTISRDNAKNTVYLQMHSLKPEDTAVYYCDKSRYDYTKTEGGYWGQATQVTVSS | low polyreactivity
37 | QVQLEETGGGLVQAGGSLRISCAASGFIFSYNAMGWYRQAPGKERELVATITRRGGGTTYADSVKGRFTISRDNAKNTVYLQMNSLIPEDTAVYYCNRDVNSKLSFGSVGYDYWGQGTQVTVSS | low polyreactivity
38 | QVQLVESGGGLVQAGGSLRLSCAASGLTFYLYDMGWYRQAPGKERELVAAISRRGTSTYYADSVKGRFTISRDNAKNTVYLQMNSLKPEDTAVYYCAADRKFGRDYWGQGTQVTVSS | high polyreactivity
39 | QVQLVESGGGLVQAGGSLRLSCAASGFISLRNTMGWYRQAPGKERELVAAINWSGGSTYYADSVKGRFTISRDNAKNTVYLQMNSLKPEDTAVYYCAKGPWPPIYRLFPGYAKFGYWGQGTQVTVSS | low polyreactivity
40 | QVQLVESGGGLDQAGGSLRLTWAASGSIFKFYAMGWYRQAPGKERDMVAAISQSGGRTYYADSVKGRFTISRDNAKNSVYLQMNSLKPEDTAVYYCAKSVFPVYGRPSNLWFNYWGQGTQVTVSS | high polyreactivity
41 | QVQLEESGGGLVQAGGSLRLSCAASGGTFDEYAMGWSRQAPGKERELVATISWNSGSTYYADSVKGRFTISRDNAKNTVYLQMNSLKPEDTAVYYCATGRNVGVWSDDYWGQGTQVTVSS | high polyreactivity
42 | QVQLVESGGGLVQAGGSLRLSCAASGRTFKYNTMGWYRQAPGKERELVAVISRSGGRTYYADSVKGRFTISRDNAKNTVYLQMNSLKPEDTAVYYCAARARGNDGYYWGQGTQVTVSS | high polyreactivity
43 | QVQLVESGGGLVQAGGSLRLSCADSGSTFLVYSMGWYRQAPGKERELVAVIDNGGDTYYADSVKGRFTISRDNAKNTVYLQMNSLKPEDTEVYYCAADLSYLGYWEYDYWGQGSQVTVSS | low polyreactivity
